The record followed here is article PMC6718625, “CryoEM structures of Arabidopsis DDR complexes involved in RNA-directed DNA methylation” (Nature Communications, 2019).

B1: His-DMS3 WT (natural protein, Arabidopsis, UniProt Q94A79 1-420, looked up)
chain: MYPTGQQISFQTTPLNVQDPTRMMNLDQSSPVARNETQNGGGIAHAEFAMFNSKRLESDLEAMGNKIKQHEDNLKFLKSQKNKMDEAIVDLQVHMSKLNSSPTPRSENSDNSLQGEDINAQILRHENSAAGVLSLVETLHGAQASQLMLTKGVVGVVAKLGKVNDENLSQILSNYLGTRSMLAVVCRNYESVTALEAYDNHGNIDINAGLHCLGSSIGREIGDSFDAICLENLRPYVGQHIADDLQRRLDLLKPKLPNGECPPGFLGFAVNMIQIDPAYLLCVTSYGYGLRETLFYNLFSRLQVYKTRADMISALPCISDGAVSLDGGIIRKTGIFNLGNRDEVNVRFAKPTASRTMDNYSEAEKKMKELKWKKEKTLEDIKREQVLREHAVFNFGKKKEEFVRCLAQSSCTNQPMNTPR
notes: DMS3, Arabidopsis; also called recombinant DMS3 WT; source: E. coli Rosetta2 (DE3), pCDF-His-DMS3, purified (Ni-NTA agarose)
B2: DMS3 (recombinant, co-expressed with His-RDM1) (natural protein, Arabidopsis)
chain: YPTGQQISFQTTPLNVQDPTRMMNLDQSSPVARNETQNGGGIAHAEFAMFNSKRLESDLEAMGNKIKQHEDNLKFLKSQKNKMDEAIVDLQVHMSKLNSSPTPRSENSDNSLQGEDINAQILRHENSAAGVLSLVETLHGAQASQLMLTKGVVGVVAKLGKVNDENLSQILSNYLGTRSMLAVVCRNYESVTALEAYDNHGNIDINAGLHCLGSSIGREIGDSFDAICLENLRPYVGQHIADDLQRRLDLLKPKLPNGECPPGFLGFAVNMIQIDPAYLLCVTSYGYGLRETLFYNLFSRLQVYKTRADMISALPCISDGAVSLDGGIIRKTGIFNLGNRDEVNVRFAKPTASRTMDNYSEAEKKMKELKWKKEKTLEDIKREQVLREHAVFNFGKKKEEFVRCLAQSSCTNQPMNTPR
notes: DMS3, Arabidopsis; residues 1-42 and 410-420 are said not to be visible in the maps; DMS3h, DMS3hc1 and DMS3hc2 are conformational states of the same chain in the structures; also called DMS3 WT; DMS3h; source: E. coli Rosetta2 (DE3), pCDFDuet-1, co-expressed with His-RDM1; purified within the DR or DDR′ complex, or in lysate (pulldown)
B3: DR complex (DMS3-RDM1) (complex, Arabidopsis)
chain 1: SSMTMELRPSGDSGSSDVDAEISDGFSPLDTSHRDVADEGSLLRRAEMYQDYMKQVPIPTNRGSLIPFTSWVGLSISMKQLYGQPLHYLTNVLLQRWDQSRFGTDSEEQRLDSIIHPTKAEATIWLVEEIHRLTPSHLHMALLWRSDPMYHSFIDPIFPEK
chain 2: B2 chain
notes: RDM1, Arabidopsis; DMS3, Arabidopsis; residues 1-42 and 410-420 are said not to be visible in the maps; Stoichiometry 4 DMS3 : 2 RDM1 by cryo-EM; also called DMS3-RDM1 complex; source: E. coli Rosetta2 (DE3), co-expressed from pCDFDuet-1, purified (His Trap HP or, with DRD1 peptide 7, Strep Trap HP; Superdex 200); not shown: 6xHis, N-terminal, kept; copies: 2 + 4
B4: 6xHis-RDM1 (natural protein, Arabidopsis)
chain: B3 chain 1
notes: RDM1, Arabidopsis; also called His tag-RDM1; source: E. coli Rosetta2 (DE3), pCDFDuet-1, co-expressed with DMS3; purified within the DR or DDR′ complex, or in lysate (pulldown); not shown: 6xHis, N-terminal, kept

Data set [1] deals with the molecule itself. The data set can be described thus: SEC; His tag affinity-purified DMS3 WT or G339E on analytical Superdex 200 10/300 GL, 20 mM HEPES-KOH pH 7.5, 150 mM NaCl.
The target in the data set “6xHis-RDM1” is B4. The data set can be described thus: cryo-EM structure; single-particle cryoEM of the purified DR complex, 3.6 Å. Conditions: both partners purified.
Data set [2] deals with the molecule itself. The data set is described as above.
The target in data set [3] is T1, DRD1 peptide 7 with C-terminal Strep II tag (Arabidopsis, UniProt Q9SIW2 45-99).
T1 construct: DRD1, Arabidopsis, region called peptide 7 in the N-terminal domain; source: E. coli Rosetta2 (DE3), pET21b, co-expressed with RDM1 and DMS3, purified as DDR′ complex (Strep Trap HP, Superdex 200); not shown: Strep II, C-terminal, kept
T1 sequence: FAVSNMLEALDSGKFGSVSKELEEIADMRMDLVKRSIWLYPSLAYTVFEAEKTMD
Put plainly: cryo-EM structure; single-particle cryoEM of the purified DDR′ complex (DRD1 peptide 7-DMS3-RDM1), 3.5 Å. The note with it: both partners purified.

Turning to B1, the binding result in data set [1] was “binds”.

As a reminder, the stoichiometry N is a count of units in the complex or per binding partner. With B2, the “stoichiometry N” value was 2 DMS3 per RDM1 (4:2) with 6xHis-RDM1 and 2 in data set [2].

With B3, the “stoichiometry N” value in data set [3] came out at 1 peptide per DR complex. For the molecule B4, the “stoichiometry N” value in data set [2] is 2.
